Where two headings read alike, the source gives them in different places.
T1: P6-AA-1HAA-N
T1 chain: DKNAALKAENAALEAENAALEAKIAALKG

T2: P6-AA-1HAA-Y
T2 chain: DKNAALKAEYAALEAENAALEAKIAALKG

T3: P6-AA-1HAA-D
T3 chain: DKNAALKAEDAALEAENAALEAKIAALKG

T4: P6-AA-1HAA-H
T4 chain: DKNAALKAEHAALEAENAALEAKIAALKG

T5: P6-AA-1HAA-T
T5 chain: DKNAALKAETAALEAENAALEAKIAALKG

T6: P6-AA-1HAA-L
T6 chain: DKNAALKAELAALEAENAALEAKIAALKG

T7: P6-AA-1HAA-V
T7 chain: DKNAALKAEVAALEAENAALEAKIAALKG

T8: P6-AA-1HAA-R
T8 chain: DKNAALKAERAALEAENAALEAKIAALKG

T9: P6-AA-1HAA-S
T9 chain: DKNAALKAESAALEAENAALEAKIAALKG

T10: P6-AA-1HAA-K
T10 chain: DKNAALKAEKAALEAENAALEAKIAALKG

T11: P6-AA-1HAA-E
T11 chain: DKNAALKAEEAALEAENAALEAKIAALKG

T12: P6-AA-12HAA-S
T12 chain: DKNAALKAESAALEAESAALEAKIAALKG

T13: P6-AA-12HAA-L
T13 chain: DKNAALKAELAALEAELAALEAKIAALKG

T14: P6-AA-12HAA-T
T14 chain: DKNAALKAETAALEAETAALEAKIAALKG

T15: P6-AA-12HAA-K
T15 chain: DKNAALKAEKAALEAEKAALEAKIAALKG

T16: P6-AA-12HAA-E
T16 chain: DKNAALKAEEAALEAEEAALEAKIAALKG

T17: P6-AA-12HAA-V
T17 chain: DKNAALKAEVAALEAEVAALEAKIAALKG

T18: P6-AA-12HAA-H
T18 chain: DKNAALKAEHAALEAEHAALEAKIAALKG

T19: P6-AA-12HAA-Y
T19 chain: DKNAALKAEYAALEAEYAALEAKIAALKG

T20: P6-AA-12HAA-D
T20 chain: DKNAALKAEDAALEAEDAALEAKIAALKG

T21: P6-AA-12HAA-R
T21 chain: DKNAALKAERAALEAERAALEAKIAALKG


Legend:
Assay in all cases: two-hybrid library CCmax;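 further: natural log of median RNA to DNA barcode read ratio; higher means stronger binding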
P6-AA-1HAA-N = molecular target: T1, P6-AA-1HAA-N; conditions: mean of both orientations
P6-AA-1HAA-Y = molecular target: T2, P6-AA-1HAA-Y
P6-AA-1HAA-D = molecular target: T3, P6-AA-1HAA-D; conditions: mean of both orientations
P6-AA-1HAA-H = molecular target: T4, P6-AA-1HAA-H; conditions: mean of both orientations
P6-AA-1HAA-T = molecular target: T5, P6-AA-1HAA-T; conditions: mean of both orientations
P6-AA-1HAA-L = molecular target: T6, P6-AA-1HAA-L; conditions: mean of both orientations
P6-AA-1HAA-V = molecular target: T7, P6-AA-1HAA-V
P6-AA-1HAA-R = molecular target: T8, P6-AA-1HAA-R; conditions: mean of both orientations
P6-AA-1HAA-S = molecular target: T9, P6-AA-1HAA-S; conditions: mean of both orientations
P6-AA-1HAA-K = molecular target: T10, P6-AA-1HAA-K
P6-AA-1HAA-E = molecular target: T11, P6-AA-1HAA-E; conditions: mean of both orientations
P6-AA-12HAA-S = molecular target: T12, P6-AA-12HAA-S
P6-AA-12HAA-L = molecular target: T13, P6-AA-12HAA-L; conditions: mean of both orientations
P6-AA-12HAA-T = molecular target: T14, P6-AA-12HAA-T
P6-AA-12HAA-K = molecular target: T15, P6-AA-12HAA-K
P6-AA-12HAA-E = molecular target: T16, P6-AA-12HAA-E; conditions: mean of both orientations
P6-AA-12HAA-V = molecular target: T17, P6-AA-12HAA-V; conditions: mean of both orientations
P6-AA-12HAA-H = molecular target: T18, P6-AA-12HAA-H; conditions: mean of both orientations
P6-AA-12HAA-Y = molecular target: T19, P6-AA-12HAA-Y
P6-AA-12HAA-D = molecular target: T20, P6-AA-12HAA-D; conditions: mean of both orientations
P6-AA-12HAA-R = molecular target: T21, P6-AA-12HAA-R; conditions: mean of both orientations

| Binder | interaction score (P6-AA-1HAA-N) | interaction score (P6-AA-1HAA-D) | interaction score (P6-AA-1HAA-H) | interaction score (P6-AA-1HAA-T) | interaction score (P6-AA-1HAA-L) | interaction score (P6-AA-1HAA-R) | interaction score (P6-AA-1HAA-S) | interaction score (P6-AA-1HAA-E) | interaction score (P6-AA-12HAA-S; mean of both orientations) | interaction score (P6-AA-12HAA-L) | interaction score (P6-AA-12HAA-T; mean of both orientations) | interaction score (P6-AA-12HAA-K; mean of both orientations) | interaction score (P6-AA-12HAA-E) | interaction score (P6-AA-12HAA-V) | interaction score (P6-AA-12HAA-H) | interaction score (P6-AA-12HAA-D) | interaction score (P6-AA-12HAA-R) | interaction score (P6-AA-12HAA-Y; mean of both orientations) | other results |
| --- | --- | --- | --- | --- | --- | --- | --- | --- | --- | --- | --- | --- | --- | --- | --- | --- | --- | --- | --- |
| DENAALEAKVAALKAKNAALKAEIAALEG [P5-AA-1HAA-V] | 1.42 | 0.818 | 1.79 | 1.93 | 2.32 | 1.76 | 1.53 | 2.25 |  |  |  |  |  |  |  |  |  |  | interaction score (P6-AA-1HAA-Y; mean of both orientations): 2.48; interaction score (P6-AA-1HAA-V; mean of both orientations): 2.09; interaction score (P6-AA-1HAA-K; mean of both orientations): 2.25 |
| DENAALEAKDAALKAKDAALKAEIAALEG [P5-AA-12HAA-D] | -1.68 |  |  |  |  |  |  |  | -1.67 | -1.56 | -1.41 | -1.61 | -1.97 | -1.32 | -1.57 | -1.47 | -1.55 |  | interaction score (P6-AA-12HAA-Y): -1.95 |
| DENAALEAKEAALKAKEAALKAEIAALEG [P5-AA-12HAA-E] | -1.74 |  |  |  |  |  |  |  | -1.39 | -0.949 | -1.32 | -2.37 | -1.42 | 0.123 | -1.89 | -1.48 | -2.01 | -1.59 |  |
| DENAALEAKAAALKAKAAALKAEIAALEG [P5-AA-12HAA-A] | -1.39 |  |  |  |  |  |  |  | -1.71 | 1.96 | -0.646 |  | -1.81 | 1.95 | -1.86 | -1.63 | -2.54 | -0.289 | interaction score (P6-AA-12HAA-K): -1.98 |
| DENAALEAKKAALKAKNAALKAEIAALEG [P5-AA-1HAA-K] | 1.41 | -0.814 | -0.889 | 1.53 | 1.84 | -1.3 | 0.0853 | -0.501 |  |  |  |  |  |  |  |  |  |  | interaction score (P6-AA-1HAA-Y; mean of both orientations): 0.0221; interaction score (P6-AA-1HAA-V; mean of both orientations): 2.05; interaction score (P6-AA-1HAA-K; mean of both orientations): -0.653 |
| DENAALEAKDAALKAKNAALKAEIAALEG [P5-AA-1HAA-D] | -1.12 | -1.42 | -0.764 | -1.02 | -0.571 | -1.35 | -1.34 | -1.72 |  |  |  |  |  |  |  |  |  |  | interaction score (P6-AA-1HAA-Y): -0.724; interaction score (P6-AA-1HAA-V; mean of both orientations): 0.68; interaction score (P6-AA-1HAA-K; mean of both orientations): -1.15 |
| DENAALEAKAAALKAKNAALKAEIAALEG [P5-AA-1HAA-A] | 0.981 | -1.94 | -0.274 | 0.325 | 1.94 | -0.629 | -0.02 | -0.184 |  |  |  |  |  |  |  |  |  |  | interaction score (P6-AA-1HAA-Y; mean of both orientations): 0.845; interaction score (P6-AA-1HAA-V): 2.66; interaction score (P6-AA-1HAA-K; mean of both orientations): -0.453 |
| DENAALEAKYAALKAKNAALKAEIAALEG [P5-AA-1HAA-Y] | 1.76 | -0.899 | -0.1 | 1.28 | 1.72 | -0.286 | 1.55 | -0.129 |  |  |  |  |  |  |  |  |  |  | interaction score (P6-AA-1HAA-Y; mean of both orientations): 1.34; interaction score (P6-AA-1HAA-V; mean of both orientations): 1.79; interaction score (P6-AA-1HAA-K; mean of both orientations): 0.174 |
| DENAALEAKHAALKAKHAALKAEIAALEG [P5-AA-12HAA-H] | 0.14 |  |  |  |  |  |  |  |  | 1.16 | -0.831 | -1.6 | -1.49 | 1.55 | -1.49 | -1.53 | -1.68 | -0.856 | interaction score (P6-AA-12HAA-S): -1.37 |
| DENAALEAKSAALKAKNAALKAEIAALEG [P5-AA-1HAA-S] | 0.913 | -1.74 | 0.0581 | 0.235 | 1.67 | -0.821 | -0.742 | -0.781 |  |  |  |  |  |  |  |  |  |  | interaction score (P6-AA-1HAA-Y; mean of both orientations): 0.832; interaction score (P6-AA-1HAA-V; mean of both orientations): 2.16; interaction score (P6-AA-1HAA-K): -1.01 |

Further lines, with some results ahead:

| interaction score (P6-AA-1HAA-N) | interaction score (P6-AA-1HAA-D) | interaction score (P6-AA-1HAA-H) | interaction score (P6-AA-1HAA-T) | interaction score (P6-AA-1HAA-L) | interaction score (P6-AA-1HAA-R) | interaction score (P6-AA-1HAA-S) | interaction score (P6-AA-1HAA-E) | interaction score (P6-AA-12HAA-S; mean of both orientations) | interaction score (P6-AA-12HAA-L) | interaction score (P6-AA-12HAA-T; mean of both orientations) | interaction score (P6-AA-12HAA-K; mean of both orientations) | interaction score (P6-AA-12HAA-E) | interaction score (P6-AA-12HAA-V) | interaction score (P6-AA-12HAA-H) | interaction score (P6-AA-12HAA-D) | interaction score (P6-AA-12HAA-R) | interaction score (P6-AA-12HAA-Y; mean of both orientations) | Binder | other results |
| --- | --- | --- | --- | --- | --- | --- | --- | --- | --- | --- | --- | --- | --- | --- | --- | --- | --- | --- | --- |
| -0.0879 |  |  |  |  |  |  |  | -1.4 | 2.06 |  | -1.55 | -1.65 | 2.38 | -1.67 | -1.3 | -1.41 | 1.48 | DENAALEAKYAALKAKYAALKAEIAALEG [P5-AA-12HAA-Y] | interaction score (P6-AA-12HAA-T): -0.448 |
| -1.49 |  |  |  |  |  |  |  | -1.61 | 1.25 | -1.23 | -1.33 | -1.36 | 1.5 | -1.12 | -2.09 | -1.74 | 0.46 | DENAALEAKTAALKAKTAALKAEIAALEG [P5-AA-12HAA-T] |  |
| -1.37 |  |  |  |  |  |  |  |  | 1.03 | -0.798 | -1.5 | -1.48 | 2.22 | -1.46 | -1.9 | -1.57 | -1.01 | DENAALEAKKAALKAKKAALKAEIAALEG [P5-AA-12HAA-K] | interaction score (P6-AA-12HAA-S): -2.76 |
| -0.665 |  |  |  |  |  |  |  | -0.666 | 1.74 | 1.66 | 0.645 | 0.451 | 2.39 | -0.352 | -1.57 | -0.243 |  | DENAALEAKLAALKAKLAALKAEIAALEG [P5-AA-12HAA-L] | interaction score (P6-AA-12HAA-Y): 2.26 |
| -1.02 |  |  |  |  |  |  |  | -1.65 | 0.323 | -1.48 | -1.73 | -1.88 | 1.55 | -1.82 | -1.65 | -1.81 | -0.94 | DENAALEAKSAALKAKSAALKAEIAALEG [P5-AA-12HAA-S] |  |
| -0.708 |  |  |  |  |  |  |  | 1.18 | 2.29 | 1.87 | 1.73 | 1.61 | 2.1 | 1.34 | -1.5 | 1.94 | 1.09 | DENAALEAKVAALKAKVAALKAEIAALEG [P5-AA-12HAA-V] |  |
| 0.341 |  |  |  |  |  |  |  | -1.83 | 1.4 | -0.88 | -1.69 | -1.43 | 2.1 | -1.83 | -1.88 | -1.5 | -1.07 | DENAALEAKRAALKAKRAALKAEIAALEG [P5-AA-12HAA-R] |  |
